Experimental data from the DeepSol protein solubility set.

Assay: soluble on expression in E. coli; label from the status in PepcDB or PDB records

With “MTLLNSRRAAGAFATTLVASTLGLSGCTSVTSSATSSPEPPTKVAAAMQTTTGETSISNETSFNASRETSLTALGFLDYLDEEQRAALLGEGLDISTLTWANQVTALRVLESLFNEHAYELVSAVIQHVAQEPGDNPHHFLKFSPEPSTENSWELTLDGPTVGLKVTFDPDGQITFKDAHLGLSPAEVVSVTEALDTSYSESQIKKAAEQLVGSLNPTQQAALQGSGLRGAQLTEEQKTLFLKMTSNWIDLANGDSGSEQQEEIADTFSDTYIIWNEQKDGSAFFQMKGPELDFSYKESVPENAELSARGVPNIQTSFQSPLEHHHHHH” as the sequence, how does the “soluble on expression in E. coli” value read?
The value was “not soluble”.

For “MGFLPDSWHFYIETLLVALLAYVVMRNRSKRQQEKLSKKLTERQKDELIADWTPEPLVPETPQDHPVLNPKYADGKMTKDVSIDGEKYLNMASTNFLSFIGVKRIEDRAKQTIFKYGVGSCGPRGFYGTVDVHLDLEKELAKFMGCEEAVLYSYGFATVSSAIPAYAKKGDVIFVDEGVNFAIQKGLQASRSRVEYFKHNDMEHLERLLLEQEQRDKKDPKKAKSVRRFIVVEGLYVNYADLCPLPKIIEFKWRFKVRVFIDESWSFGVIGKTGRGVTEHFNVPMEDVDMVMASLENALASTGGFCVGRSYVVGHQRLSGLGYCFSASLPPLLATAASEAISIIDEEPSRVQKVTEMAINGQKKLQDALSGSKFSLQGCPESPMKHIYYNGEDEEKQLDTFVETVFTKNHLLLTRARYLDKDELFKIRPSIRVMFQHDLTEEEIQRAVDAIRVVAHKF”, which “soluble on expression in E. coli” value is on record?
The value was “not soluble”.

With “MKITIIGAGNIGSAVAACLAKGHLYNEKDIIISTPHTDKLENLHKQFPAIRIMTENQYAISEADIIILAVKPCIVDEVLSPLRFSRTQILVSLVTGISISHLAHLSETEMPIFRVVPNIAITEHSSLTLITSRKAGKEHQQLIKQTFEEGGKCLFAEEKQLDIISALTSSGIAFALKYIHAAMQAGIELGISAEDAMRMTAYSMEGATELILNHDTHPLLEIEKAATPGGATIKGLNELEHRGFTSAVIHAIKSSATVSTDKETEE” as the sequence, how does the “soluble on expression in E. coli” value read?
Its value is “not soluble”.

Which “soluble on expression in E. coli” value does the source give for “MKQQAIDEQLRNAIEYTPEMFTQVPMLYINIEINNYPVKAFVDTGAQTTIMSTRLAKKTGLSRMIDKRFIGEARGVGTGKIIGRIHQAQVKIETQYIPCSFTVLDTDIDVLIGLDMLKRHLACVDLKENVLRIAEVETSFLSEAEIPK” here?
The value was “soluble”.

With “MMQTSRPTLQLLTASACYRDDPTALFHQLCGARPATLLLESAEVDNKQNLKSLLVIDSALRITALGQTVTLEALTRNGASLLPLLDASLPTEVDIQVRPNGRELTFPLINEVQDEDSRLQSLSVFDALRQLLTLVNTPLAEREALFLGGLFAYDLVAGFENLPPLRQDQRCPDFCFYLAETLLVLDHQHRSTRLQASLFTPDSSEYQRLATRLEQLSHQLQQAPHPIPATSVPEMALQCNQSDEEYCNVVSELQVAIREGEIFQVVPSRRFTLPCPSPLAAYQTLKDHNPSPYMFFMQDNDFSLFGASPESALKYDASNRQIEIYPIAGTRPRGRRPNGELDRDLDSRIELEMRTDHKEMAEHLMLVDLARNDLARICEPGSRYVADLTKVDRYSFVMHLVSRVIGTLRQDLDVLHAYQACMNMGTLSGAPKVRAMQLIASNEGSRRGSYGGAVGYFTAHGDLDTCIVIRSAYVEDGIATVQAGAGVVLDSVPQAEADETRNKARAVLRAIATAHHAKEIF” as the sequence, how does the “soluble on expression in E. coli” value read?
Its value is “not soluble”.

Which “soluble on expression in E. coli” value does the source give for “WPALDDETLLARLELWLEPYLAGVTSVKGLQSVSVLQALKHYLGWELSQQLDEWLPTHHLLPTGNHKKIRYQLGMEPTLSVRMQEVFGEQSSPRVAKGTRAVVMELLSPAQRPLQVTRDLASFWAGAYKEVQKEMKGRYPKHVWPDDP” here?
The value was “not soluble”.

For “MGSDKIHHHHHHMSAFYDLYETPDPNDTGEKQPLHARIVPSGTYSKKDFIERVSRHQPFPHNIIEGVLGAVVDELAEALADGYIVELGELGHFSISLKCTHKVMTKKEIRAESIRFDNVHLRTSKEFKKKIKREIELERVENSNEKTHNAKISIEDRLQMLQEFLKKNGGITRIEYSRLTGLPRLKAIDDLNTFIKEGTLRKRGAGRTVFYVWKQKE”, which “soluble on expression in E. coli” value is on record?
The value was “not soluble”.

For “MGSDKIHHHHHHMEKMLYTAASGAVRILEAQSIRANNLANAETAGFKADLERVNAVPLVAQGNSLNTRVMAQTESSGFSQQSGVINPTGRSLDLAIRDRGLFSVAVDGAEAYTRSGAIETNAEGQLTIDGRPVLGIDGPIALPEYKDVFVGEDGTVSVLPAEGGIIEEVGRLKLVNPDFALMQKGQDGLLYRRDGQAVPQDEGVLVDSGFLESSNVQAVSELIASMDLSRQFEIQVKLMKSAEKLAEAGNRLLGNV”, which “soluble on expression in E. coli” value is on record?
The value was “not soluble”.

For “MRHDTRLSRVLHILIHMEKHEGAATSENIAAMLQTNPVVVRRTMAGLREHGYVSSEKGHGGGWVLAQPLTEITLLDIYRALGAPELFSIGLAGDNPNCVIEQAVNAALFDAMNEAENILLSRFGSITLSTLAEESIDRWSKLSNCPSAMEQL”, which “soluble on expression in E. coli” value is on record?
The value was “not soluble”.

For “MGSDKIHHHHHHGAGISTESGIPDYRSKDVGLYARIAHKPIYFQDYMRSNRCRQRYWSRNFLAWPRFGQAAPNINHYALSKWEASDRFQWLITQNVDGLHLKAGSKMVTELHGSALQVKCTTCDYIESRQTYQDRLDYANPGFKEEHVAPGELAPDGDIILPLGTEKGFQIPECPSCGGLMKTDVTFFGENVNMDKVNFCYEKVNECDGILSLGTSLAVLS”, which “soluble on expression in E. coli” value is on record?
The value was “not soluble”.

Which “soluble on expression in E. coli” value does the source give for “MGSDKIHHHHHHMKVLHLIDSGGLYGAERMLLALVAEQIQQGLEPMILSAGEQGIHQKPLEIEAEKLGLPLVVWRMTPGLNYPETRKICEWAEHWGVDLVHSHGYKFNILMSLFSRFSRKVPVVSTLHGYVHAPRFSRMWVYELLDRLAISRLDGVIMVGAAMKKELSTGLIRPRRLTTIRNGLAVDDTQRKATEPLPEALEEFFSTHEPVILGVGRLSKEKGFSHLVDSFREIKQSAPKAGLLIVGDGMLRKDLEDQVARLGLGSDVCLPGYCDNVPALMARSSALVISSSTEGLPITLLEAMAVRLPVVSTDVGEISFVLDEGDSGVLVKDPASELVDAIELVLNETEATHRKTEQAFHKVSGELSARSMAEQYLRVYNGVVAS” here?
Its value is “not soluble”.

For “MNKIETDTLLLPVIGESPAGDDIEYDPVYSEIREARQNDPDYMSQGEWAVSEPRRADWRKVRKLCEVTLRNKSKDLQISCWYVESLTHLYALEGMHCGLEYLAKFISQYWTTCWPSQEEGQEIRYSKLVRLDIDLSEYLKAYPLLEDKEITLSEWYKVLSFEHGASLSEAGKERLIESEGDHSVESFKRAVGKYNPRKVSEQLLQLYDLPDKIDEIESSYFFHTHEDIHHIFAKTRHIISEITELLSRFLPQETLDHSSVSQFLGKPDSRDTRTALPEEKKEFYSALTPSTDKEMSREKAIEQLEKIAIFFRQSEPTSPVPYLLERAIRWSTMTMSEWLEELLKDNDSMEQINRVLKG”, which “soluble on expression in E. coli” value is on record?
Its value is “not soluble”.

Which “soluble on expression in E. coli” value does the source give for “MGSDKIHHHHHHMEEANFYHALKIDNDRCIGCTHCMKECPTGAIRIRDGKALIHKDWCVDCGECLKSCPTEAIYVEQDDFQRIFDYKCRVALMPTVFIGQFSKYTTEKEIISAVMELGFTHVFQVEFTADMIHKEMVRQMENAEEKPVISSFCPAIVRLIQVRFPALVDNILLVKAPVNASATYYHKILEGQGVPSEEIGIFYVTPCAAKIAALKGAEGYSSTIKGVINMDTLYNKVYHILKNRPRGYEPECELPPPLTKKEMRWSQTGGEAKHFSGRCLAIDEIHNVIDFLERMETTSEVRNVDFLELRACDRSCAGGVLAVANRFLTAERIMKRSMNRDKVPMIYAADNFEALSYLRQHITIRPVQPNPKRLYDGTIDEMLKKMEQVRKLMCYLPGIDCGACGSPNCQSLAEDIVRHEAQFSDCVFMQRNMEKHGKLDQEHAFRIVEKTWGKDRLNKDCYKKGAKYEGL” here?
Its value is “not soluble”.

With “MGQRVDKEVTPRFVELGQVSAIRTEPEIAYRSNQGVTRQRQQTKVFKLVSTYDKVAVKNAIRAAYRQVFERDLEPYIINSEFTALESKLSNNEINVKEFIEGLGTSELYMKEFYAPYPNTKVIEMGTKHFLGRAPLNQKEIQQYNQILASQGLKAFIGAMVNGMEYLQTFGEDTVPYRRFPTLPAANFPNTERLYNKLTKQDKELEHHHHHH” as the sequence, how does the “soluble on expression in E. coli” value read?
The value was “soluble”.

Which “soluble on expression in E. coli” value does the source give for “MGSDKIHHHHHHMNQQPEQITALYCRLSRDDELQGDSNSIVNQKSILSKYAEEHRLLNTRFFIDDGVSGTTFDRPGLNEMLALIDEEKVSTVIVKDMSRLGRDYLKVGLLTEIQLPEKGVRFIAINDGVDSNQGVSEFIAFRNVINEWYAKDTSKKIKAVFTAKGQSGKPLSTFPPYGYIKDPEDKNRWIVDEAAAEVVREIFRLCMEGNGPTKIARILSERRVLIPSAYAKSNGRSAPADVPADRCKWCDSTVAHILERKEYLGHTVNFKTYKESFRNKKQRKNPKENQMVFENTHQPIIEQDVWDTVQQLR” here?
Its value is “not soluble”.

Which “soluble on expression in E. coli” value does the source give for “MGSDKIHHHHHHMLITCSESGIDFGKSLSTYIHEYLGLNRNCRLFEVKQACYSGTAGFQMAVNFILSQTSPGAKALVIASDISRFLIAEGGDALSEDWSYAEPSAGAGAVAVLVGENPEVFQIDPGANGYYGYEVMDTCRPIPDSEAGDSDLSLMSYLDCCEQTFLEYQKRVPGANYQDTFQYLAYHTPFGGMVKGAHRTMMRKVAKVKTSGIETDFLTRVKPGLNYCQRVGNIMGAALFLALASTIDQGRFDTPKRIGCFSYGSGCCSEFYSGITTPQGQERQRTFGIEKHLDRRYQLSMEEYELLFKGSGMVRFGTRNVKLDFEMIPGIMQSTQEKPRLFLEEISEFHRKYRWIS” here?
The value was “not soluble”.

With “MSLEKWRIYEELTNAVREFESINPVRLIPEVGTNFVYSLPLPYARSTKDVAGVKGRIVKYGNSVKAVGPVEFGASDHLARAVLTYMRFYPEYRSAINIRYSREIIEEIIEIAQERGFKVSFYDRREEPEEIKAKEGATIPWGIETAIKRIKERPDIIYHLGDVGKEPMILVFGRNPREVLEKIKMLIEGHHHHHH” as the sequence, how does the “soluble on expression in E. coli” value read?
Its value is “soluble”.

For “MSTLIECGASPFIPGFALKDVRLENGLTVRVAIGGSGSPLVLLHGHPQNHTTWRKVAPTLAQNHTVILPDLRGYGDSDKPTSDPAHRTYSKRTMAQDIVMLMDALGFSRFAFVGHDRGGRVGHRLALDYPDRVTCCTFIDIAPTATMYALTDKSFATRYFWWFFLIQPFPLPETMIAHDPAFFLRKHISGQLKIEGATSQEAFNEYLRCYQNPEMIHAICEDYRAAATIDLDDDAADTSARIRCPLQLLWGGLGTVGQLYNVVGTWKEKALNVQGEALPCGHSPQEECPEYFIQKLQSFLHSVL”, which “soluble on expression in E. coli” value is on record?
Its value is “soluble”.

With “MDVRQSIHSAHAKTLDTQGLRNEFLVEKVFVADEYTMVYSHIDRIIVGGIMPITKTVSVGGEVGKQLGVSYFLERRELGVINIGGAGTITVDGQCYEIGHRDALYVGKGAKEVVFASIDTGTPAKFYYNCAPAHTTYPTKKVTPDEVSPVTLGDNLTSNRRTINKYFVPDVLETCQLSMGLTELAPGNLWNTMPCHTHERRMEVYFYFNMDDDACVFHMMGQPQETRHIVMHNEQAVISPSWSIHSGVGTKAYTFIWGMVGENQVFDDMDHVAVKDLR” as the sequence, how does the “soluble on expression in E. coli” value read?
Its value is “not soluble”.
